Results reported in patent publication US20030134779A1, “Method and composition for treatment and/or prevention of antibiotic-resistant microorganism infections” (priority 2002, published 2003).

Legend:
Assay type in all cases: cell-based, Staphylococcus aureus
S. aureus strains = assay: MIC / FIC determination, summary over strains; conditions: strains of Table 1
Text: Staphylococcus aureus strains ATCC 25923 and 6538 and Escherichia coli ATCC 25922 were obtained from the American Type Culture Collection. Eight bovine mastitis clinical isolates of S. aureus (SHY97-3906, -3923, -4085 -4242, -4320 and -4343, RFT-1 and RFT-5) and one isolate of E. coli SHY97-3923-2 and one isolate of Kiebsiella pneumoniae SHY99-723-1 were kindly provided by the Laboratoire Provincial de Pathologie Animale of St-Hyacinthe and of Rock-Forest (Quebec, Canada), respectively. Nine β-lactam antibiotics resistant S. aureus strains (PC-1, NCTC 9789, 2076, 22260, ST79/741, 3804, RN9, FAR8, and FAR10) were obtained from Vanderbilt University School of Medicine (Nashville, Tenn., USA). […]
The MICs were determined by both macrodilution (1 ml/tube) and microdilution (100 μl/well) in sterile 96 well microtiter plates (International Nunc, Napierville, Ill.) techniques in three separate experiments according to the National Committee for Clinical Laboratory Standards (1992 and 1999) in three separate experiments. […] Effect of LF combination with antibiotic on MICs were determined by adding 0.5 mg or 1 mg/ml of LF to each antibiotic dilution. […] Effect of LF or LFC combination with antibiotic on MIC was also determined by checkerboard method using 96 well microtiter plates. […] The fractional inhibitory concentration (FIC) was calculated as described by Eliopoulos and Moellering (1991). […]

S. aureus ATCC 25923 = assay: Cell morphology by transmission electron microscopy; conditions: LF 9.1 μg/ml alone; 18-h
Procedure: (§1) Bacterial cells were grown overnight on MHA or MHB containing sub-MICs of penicillin G with or without LF or LFC. Microorganisms were prepared for transmission electron microscopy by fixation with glutaraldehyde followed by ferritin labelling. This method allows good- preservation of capsular material. Briefly, bacterial cells grown in the presence or absence of antibiotics were fixed in cacodylate buffer (0.1 M, pH 7.0) containing 5% (v/v) glutaraldehyde, for 2 h at 20° C. Fixed microorganims were suspended in cacodylate buffer and allowed to react with the polycationic ferritin (Sigma Chemicals, St-Louis, Mo.; final concentration 1.0 mg/ml) for 30 min at 20° C. The reaction was slowed down by 10-fold dilution with buffer, and the microorganisms were centrifuged and washed three times in cacodylate buffer. Bacterial cells were then immobilized in 4% (w/v) agar, washed 5 times in cacodylate buffer and post-fixed with 2% (w/v) osmium tetroxide for 2 h. Washings were repeated as above, and the samples dehydrated in a graded series of acetone washes. Samples were then washed twice in propylene oxide and embedded in Spurr low-viscosity resin. Thin sections were post-stained with uranyl acetate and lead citrate and examined with an electron microscope (Philips 201) at an accelerating voltage of 60 kV.

S. aureus PC-1 = assay: as above; conditions: exposure to LF or LFC
Procedure: as §1, with “Washings were repeated as above, and the samples dehydrated in a graded series of acetone washes. Samples were then washed twice in propylene oxide and embedded in Spurr low-viscosity resin. Thin sections were post-stained with uranyl acetate and lead citrate and examined with an electron microscope (Philips 201) at an accelerating voltage of 60 kV.” left out
Bacterial cells of PC-1 (a constitutively high producing β-lactamase strain) were grown overnight in MHB containing 8 μg/ml of penicillin G, 16 μg/ml of LFC alone or in combination for 4-h at 37° C. with agitation at 150 rpm. Bacteria cell morphology was evaluated by transmission electron microscopy after fixation and ferritin labelling method as previously described.

S. aureus = assay: Growth inhibition and influence of iron
Procedure: The effect of LF or LFC at concentration sub-MICs alone or in combination with sub-MICs of antibiotics on bacterial growth rate of S. aureus, E. coli and K. pneumoniae was determined by monitoring bacterial cultures in MHB with the O.D.600 nm or by the count of colony forming unit per ml (cfu/ml). A volume of 2.5 ml of overnight cultures in MHB adjusted to 0.5-1 McFarland standard in saline were used to inoculate a final volume of 25 ml of fresh MHB containing the desired concentration of tested compounds. All flasks were then incubated at 37° C. with agitation (200 rpm) for 9 h. Aliquots were removed every hour to determine the culture turbidity using the spectrophotometer Philips PU 8800 (Pye Unican Ltd, Cambridge, UK). The combined antibiotic effect on bacterial growth was also determined using concentrations of LF in the presence of different concentrations of antibiotics. Briefly, a volume of 3 ml of fresh MHB containing desired concentration of drugs was adjusted to an optical density of 0.4 at 540 nm after an overnight culture. The culture was then incubated at 37° C with agitation (200 rpm). After incubation, aliquots were removed to determine the culture turbidity (OD540nm) or cfu/ml. To determine the influence of the level of iron on of the growth inhibition by the test compound, 5 μM of FeCl3 were added to the media.

B1: LF: bovine lactoferrin, 80-kDa iron-binding glycoprotein found in milk (protein, UniProt P24627 20-708, looked up)
Lactotransferrin: APRKNVRWCTISQPEWFKCRRWQWRMKKLGAPSITCVRRAFALECIRAIAEKKADAVTLDGGMVFEAGRDPYKLRPVAAEIYGTKESPQTHYYAVAVVKKGSNFQLDQLQGRKSCHTGLGRSAGWIIPMGILRPYLSWTESLEPLQGAVAKFFSASCVPCIDRQAYPNLCQLCKGEGENQCACSSREPYFGYSGAFKCLQDGAGDVAFVKETTVFENLPEKADRDQYELLCLNNSRAPVDAFKECHLAQVPSHAVVARSVDGKEDLIWKLLSKAQEKFGKNKSRSFQLFGSPPGQRDLLFKDSALGFLRIPSKVDSALYLGSRYLTTLKNLRETAEEVKARYTRVVWCAVGPEEQKKCQQWSQQSGQNVTCATASTTDDCIVLVLKGEADALNLDGGYIYTAGKCGLVPVLAENRKSSKHSSLDCVLRPTEGYLAVAVVKKANEGLTWNSLKDKKSCHTAVDRTAGWNIPMGLIVNQTGSCAFDEFFSQSCAPGADPKSRLCALCAGDDQGLDKCVPNSKEKYYGYTGAFRCLAEDVGDVAFVKNDTVWENTNGESTADWAKNLNREDFRLLCLDGTRKPVTEAQSCHLAVAPNHAVVSRSDRAAHVKQVLLHQQALFGKNGKNCPDKFCLFKSETKNLLFNDNTECLAKLGGRPTYEEYLGTEYVTAIANLKKCSTSPLLEACAFLTR
MICs of lactoferrin alone (S. aureus strains): greater than 25 mg/ml
cell morphology (S. aureus ATCC 25923): no obvious effect
shape and size of cells (S. aureus PC-1): affected the shape and the size
effect of addition of 5 μM of FeCl3 on LF growth inhibitory activity (S. aureus): did not affect
growth inhibitory activity (S. aureus; bovine LF saturated to 16.2% of iron): demonstrated a growth inhibitory activity
